Data from patent publication US20260250421A1 (BIOCYTOGEN PHARMACEUTICALS BEIJING, published 2026).
Substitutions are numbered along the chain they refer to.

B1: 1A11 (antibody, V domains shown)
VH: QVQLVQSGPGLVKPSETLSLTCTVSGGSINSYYWNWIRQPPGKGLEWIGYIYYSGSTNYNPSLKSRVTISVDTSKNQFSLKLSSVTAADTAVYYCARDPHDYIRGHFDLWGRGTLFTVSS
VL: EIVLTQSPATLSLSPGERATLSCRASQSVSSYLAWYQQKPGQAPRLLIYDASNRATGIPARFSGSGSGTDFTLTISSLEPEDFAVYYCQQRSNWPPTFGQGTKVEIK
notes: also called anti-PTK7 antibody 1A11
B2: 3C4 (antibody, V domains shown)
VH: QVQLEQSRAEVKKPGESLRISCKGSGYSFTSYWISWVRQMPGKGLEWMGRIDPSDSYTNYNPSFQGHVTISADKSISTAYLQWSSLKASDTAMYYCARRDGSYFDFDYWGQGTLVTVSS
VL: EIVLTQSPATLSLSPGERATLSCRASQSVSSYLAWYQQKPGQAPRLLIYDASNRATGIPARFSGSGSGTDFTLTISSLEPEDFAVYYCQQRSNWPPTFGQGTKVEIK
notes: also called anti-PTK7 antibody 3C4
B3: 3E6 (antibody, V domains shown)
VH: B2 VH with E5V, Q6E, R8G, K23R, N59K, N61S, S102D
VL: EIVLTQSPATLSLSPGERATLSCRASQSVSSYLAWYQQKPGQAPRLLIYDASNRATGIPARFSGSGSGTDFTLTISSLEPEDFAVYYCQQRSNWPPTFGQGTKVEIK
notes: also called anti-PTK7 antibody 3E6
B4: 1F2 (antibody, V domains shown)
VH: QVQLVQSGGGLVQPGGSLRLSCAASGFTFSRYEMNWVRQAPGKGLEWVSYINSIGSAINYADSVKGRFTISRDNAKNSLYLQMRSLRAEDTAVYYCVREDNWNPGYWGQGTLVTVSS
VL: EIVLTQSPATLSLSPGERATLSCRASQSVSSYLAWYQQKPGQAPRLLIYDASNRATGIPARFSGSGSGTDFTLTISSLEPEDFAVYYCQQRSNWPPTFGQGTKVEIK
notes: also called anti-PTK7 antibody 1F2
B5: 1A7 (antibody, human IgG1, V domains shown)
VH: QVQLVESGGGVVQPGRSLRLSCAASGFTFSNYGMHWVRQAPGKGLEWVAVIYYDGSNKFYADSVKGRFTISRDNSKNTLYLQMSSLRAEDTAVYYCARDVAPPGSRAEYFHHWGQGTLVTVSS
VL: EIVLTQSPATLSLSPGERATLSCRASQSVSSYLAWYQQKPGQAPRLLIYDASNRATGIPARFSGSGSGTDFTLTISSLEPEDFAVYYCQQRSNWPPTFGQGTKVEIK
notes: also called anti-PTK7 antibody 1A7
B6: 2D11 (antibody, V domains shown)
VH: B5 VH with N31S, Y52F, F59Y, S84N, A92S, P102A, H111Q, H112N
VL: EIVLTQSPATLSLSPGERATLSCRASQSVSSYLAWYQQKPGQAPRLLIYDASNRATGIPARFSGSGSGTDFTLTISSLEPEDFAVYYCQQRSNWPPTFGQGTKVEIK
notes: also called anti-PTK7 antibody 2D11
B7: 2F5 (antibody, V domains shown)
VH: B5 VH with A23V, V50I, F59Y, S84N, P102A, P103A, F110L
VL: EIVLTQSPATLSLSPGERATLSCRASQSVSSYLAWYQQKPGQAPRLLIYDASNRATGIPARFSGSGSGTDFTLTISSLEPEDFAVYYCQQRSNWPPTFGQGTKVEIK
notes: also called anti-PTK7 antibody 2F5
B8: 2A5 (antibody, V domains shown)
VH: B5 VH with E6Q, Y52W, S56R, F59Y, S84N, P103A, H111Q, H112N
VL: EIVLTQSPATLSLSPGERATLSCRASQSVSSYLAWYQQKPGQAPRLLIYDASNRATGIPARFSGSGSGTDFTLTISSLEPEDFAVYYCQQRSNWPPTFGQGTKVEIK
notes: also called anti-PTK7 antibody 2A5

Molecular target: T1, His-tagged cynomolgus monkey PTK7 protein (cynomolgus monkey, UniProt A0A2K5VNI5 39-712)
T1 construct: Bought protein; also called cPTK7-His; ACRO Biosystems Cat# PT7-C52H3; not shown: His tag
T1 sequence: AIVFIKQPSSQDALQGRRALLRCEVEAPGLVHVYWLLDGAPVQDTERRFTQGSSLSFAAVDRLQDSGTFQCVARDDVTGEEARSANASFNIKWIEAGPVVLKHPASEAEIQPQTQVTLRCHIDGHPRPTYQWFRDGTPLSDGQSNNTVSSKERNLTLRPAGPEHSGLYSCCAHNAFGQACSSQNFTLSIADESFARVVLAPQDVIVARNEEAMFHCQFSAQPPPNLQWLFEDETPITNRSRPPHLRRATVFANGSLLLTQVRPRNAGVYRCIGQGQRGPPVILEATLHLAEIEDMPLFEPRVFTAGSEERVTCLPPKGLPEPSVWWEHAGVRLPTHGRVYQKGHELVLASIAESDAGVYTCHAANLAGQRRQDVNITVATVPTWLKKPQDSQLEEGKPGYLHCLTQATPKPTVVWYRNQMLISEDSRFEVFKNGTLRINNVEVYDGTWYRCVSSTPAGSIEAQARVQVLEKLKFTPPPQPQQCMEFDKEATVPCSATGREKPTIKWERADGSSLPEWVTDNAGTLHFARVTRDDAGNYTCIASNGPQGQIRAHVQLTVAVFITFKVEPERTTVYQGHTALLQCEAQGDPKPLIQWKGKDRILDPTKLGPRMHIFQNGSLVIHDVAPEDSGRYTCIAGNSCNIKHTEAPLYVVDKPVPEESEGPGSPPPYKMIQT
Test: SPR Biacore 8K, Ab on Protein A chip
Method: (§1) Purified anti-PTK7 antibodies were diluted to 1 μg/mL and then injected into the Biacore™ 8K biosensor at 10 μL/min for about 50 seconds to achieve a desired protein density (e.g., about 50 response units (RU)). The His-tagged PTK7 protein at a concentration of 200 nM or 0 nM was then injected at 30 μL/min for 180 seconds. Dissociation was monitored for 400 seconds. The chip was regenerated after the last injection of each titration with glycine (pH 2.0, 30 μL/min for 30 seconds).

Binder | Kd | koff | kon
B1 | 18.4 nM | 0.00131 s⁻¹ | 71200 M⁻¹ s⁻¹
B2 | 23.2 nM | 0.00187 s⁻¹ | 80600 M⁻¹ s⁻¹
B3 | 3.95 nM | 0.000481 s⁻¹ | 122000 M⁻¹ s⁻¹
B4 | 30.2 nM | 0.00949 s⁻¹ | 314000 M⁻¹ s⁻¹
B5 | 17.9 nM | 0.000733 s⁻¹ | 41100 M⁻¹ s⁻¹
B6 | 3.08 nM | 0.000177 s⁻¹ | 57400 M⁻¹ s⁻¹
B7 | 35.2 nM | 0.00146 s⁻¹ | 41600 M⁻¹ s⁻¹
B8 | 10.8 nM | 0.000439 s⁻¹ | 40700 M⁻¹ s⁻¹

Molecular target: T2, His-tagged human PTK7 protein (human, UniProt Q13308 31-704)
T2 construct: Bought protein; also called hPTK7-His; not shown: His tag
T2 sequence: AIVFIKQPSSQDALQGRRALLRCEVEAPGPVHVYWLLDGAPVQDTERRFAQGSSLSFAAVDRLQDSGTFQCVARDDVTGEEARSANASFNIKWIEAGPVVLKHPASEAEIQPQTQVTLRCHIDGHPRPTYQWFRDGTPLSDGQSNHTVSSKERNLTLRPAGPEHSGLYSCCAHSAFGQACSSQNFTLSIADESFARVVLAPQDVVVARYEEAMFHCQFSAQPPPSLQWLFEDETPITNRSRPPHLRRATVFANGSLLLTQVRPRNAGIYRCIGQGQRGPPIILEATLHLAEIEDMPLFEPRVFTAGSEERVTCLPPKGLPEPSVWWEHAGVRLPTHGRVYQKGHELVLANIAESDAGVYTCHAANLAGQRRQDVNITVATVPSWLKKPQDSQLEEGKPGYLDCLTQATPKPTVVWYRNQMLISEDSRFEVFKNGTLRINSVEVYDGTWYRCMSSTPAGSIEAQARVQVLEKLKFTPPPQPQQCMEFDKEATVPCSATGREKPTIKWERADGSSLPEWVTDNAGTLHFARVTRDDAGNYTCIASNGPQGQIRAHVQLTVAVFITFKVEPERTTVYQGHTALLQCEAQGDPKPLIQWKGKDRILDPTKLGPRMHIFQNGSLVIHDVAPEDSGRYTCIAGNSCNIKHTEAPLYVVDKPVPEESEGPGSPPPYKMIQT
Test: SPR Biacore 8K, Ab on Protein A chip
Method: as §1

Binder | Kd | koff | kon
B1 | 41 nM | 0.00318 s⁻¹ | 77600 M⁻¹ s⁻¹
B2 | 25.4 nM | 0.00237 s⁻¹ | 93200 M⁻¹ s⁻¹
B3 | 3.44 nM | 0.000454 s⁻¹ | 132000 M⁻¹ s⁻¹
B4 | 69.8 nM | 0.012 s⁻¹ | 172000 M⁻¹ s⁻¹
B5 | 40.9 nM | 0.00425 s⁻¹ | 104000 M⁻¹ s⁻¹
B6 | 8.11 nM | 0.000249 s⁻¹ | 30600 M⁻¹ s⁻¹
B7 | 109 nM | 0.00388 s⁻¹ | 35600 M⁻¹ s⁻¹
B8 | 25.9 nM | 0.00281 s⁻¹ | 108000 M⁻¹ s⁻¹

Molecular target: T3, His-tagged dog PTK7 protein (dog, UniProt Q13308 31-703 (human entry))
T3 construct: also called dPTK7-His
T3 chain: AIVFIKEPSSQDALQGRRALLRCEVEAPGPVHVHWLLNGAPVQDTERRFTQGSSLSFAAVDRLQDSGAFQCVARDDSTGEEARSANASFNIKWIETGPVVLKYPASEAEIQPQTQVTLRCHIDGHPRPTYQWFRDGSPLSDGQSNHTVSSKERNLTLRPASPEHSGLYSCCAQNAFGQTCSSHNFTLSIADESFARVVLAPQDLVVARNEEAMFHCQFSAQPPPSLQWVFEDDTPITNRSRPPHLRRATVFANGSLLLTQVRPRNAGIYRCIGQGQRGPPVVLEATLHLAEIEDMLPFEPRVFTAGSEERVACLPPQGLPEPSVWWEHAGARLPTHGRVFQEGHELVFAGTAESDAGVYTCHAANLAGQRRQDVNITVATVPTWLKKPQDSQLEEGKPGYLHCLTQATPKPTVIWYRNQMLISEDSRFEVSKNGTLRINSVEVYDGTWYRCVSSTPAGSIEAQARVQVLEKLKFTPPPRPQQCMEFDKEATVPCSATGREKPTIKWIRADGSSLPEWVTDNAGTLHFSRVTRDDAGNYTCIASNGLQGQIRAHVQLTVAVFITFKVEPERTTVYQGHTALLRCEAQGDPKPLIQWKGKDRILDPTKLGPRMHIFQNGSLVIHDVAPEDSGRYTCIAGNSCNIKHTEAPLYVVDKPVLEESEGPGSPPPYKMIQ
Test: SPR Biacore 8K, Ab on Protein A chip
Method: as §1

Binder | Kd | koff | kon
B1 | 14.5 nM | 0.00123 s⁻¹ | 84600 M⁻¹ s⁻¹
B2 | 8.48 nM | 0.00399 s⁻¹ | 471000 M⁻¹ s⁻¹
B3 | 11.6 nM | 0.00171 s⁻¹ | 147000 M⁻¹ s⁻¹
B4 | 21.2 nM | 0.00927 s⁻¹ | 437000 M⁻¹ s⁻¹
B5 | 2.3 nM | 0.000133 s⁻¹ | 58000 M⁻¹ s⁻¹
B6 | 0.898 nM | 5.47e-05 s⁻¹ | 60900 M⁻¹ s⁻¹
B7 | 11.1 nM | 0.000563 s⁻¹ | 50700 M⁻¹ s⁻¹
B8 | 3.43 nM | 0.000167 s⁻¹ | 48600 M⁻¹ s⁻¹
